Laboratory results as given in patent US20230384326A1 (CANON MEDICAL SYSTEMS, published 2023).
Blank lines part the entries; values can stand above or below the binder they belong to.

Columns and labels:
[1] = molecular target: T1, mCRP (99) peptide (human); assay: solid phase peptide ELISA
T1 peptide: EILFEVPEVTC
Experimental: (§1) Epitope analysis was performed by the following procedure. [0200] (a) Peptides were immobilized on a plate by standing at 50 ng/well (50 μL/well) for 16 hours at 4° C. […] (b) Solid phase peptides were washed twice with Dulbecco's PBS (D-PBS) (200 μL/well). […] (c) Blocking was performed by adding 200 μL of D-PBS containing 0.1% BSA and 0.05% NaN₃ to each well and leaving it at 4° C. overnight. […] (d) Each well was washed twice with the washing buffer. [0204] (e) The antibody was diluted to 1 μg/mL with the dilution buffer and the diluted solution was added to each well (50 μL/well) and left at 37° C. for 30 minutes. […] (f) Each well was washed four or more times with the washing buffer. […] (g) Anti-mouse IgG (γ-specific)-HRP, a labeled antibody, was added to each well (50 μL/well) and left at 37° C. for 30 minutes. [0207] (h) Each well was washed four or more times with the washing buffer. […] (i) A chromogenic reaction was started by adding a substrate solution (400 μg/mL) to each well (100 μL/well), and the reaction was allowed to proceed for 15 minutes at room temperature in the dark. [0209] (j) After 15 minutes, the reaction was stopped by addition of 1 mol/L sulfuric acid (100 μL/well), and absorbance (490 nm) was measured.
In the above (e), the same result was obtained even when the antibody concentration added to each well was changed to 5 μg/mL. […]

[2] = molecular target: T2, mCRP (31-60) peptide (human); assay: solid phase peptide ELISA (part 2)
T2 peptide: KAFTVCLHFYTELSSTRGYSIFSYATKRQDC

[3] = molecular target: T3, mCRP (61-90) peptide (human); assay: solid phase peptide ELISA (part 2)
T3 peptide: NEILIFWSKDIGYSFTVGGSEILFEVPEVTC

[4] = molecular target: T4, mCRP (121-150) peptide (human); assay: solid phase peptide ELISA (part 2)
T4 peptide: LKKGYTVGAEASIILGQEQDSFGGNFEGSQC

[5] = molecular target: T5, mCRP (151-180) peptide (human); assay: solid phase peptide ELISA (part 2)
T5 peptide: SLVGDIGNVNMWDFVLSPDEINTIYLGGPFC

[6] = molecular target: T6, mCRP (181-206) peptide (human); assay: solid phase peptide ELISA (part 2)
T6 peptide: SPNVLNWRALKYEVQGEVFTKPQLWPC

[7] = molecular target: T7, mCRP (19) peptide (human); assay: solid phase peptide ELISA, antibody 1 ug/mL
T7 peptide: QTDMSRKAFVC
Experimental: as §1
(§2) In the above (e), the same result was obtained even when the antibody concentration added to each well was changed to 5 μg/mL. […] Accordingly, it is believed that there are not only one kind of epitope but also a plurality of kinds of epitopes of human denatured CRP-specific monoclonal antibodies.

[8] = molecular target: T8, mCRP (29) peptide (human); assay: solid phase peptide ELISA, antibody 1 ug/mL
T8 peptide: FPKESDTSYVC
Experimental: as §1, §2

[9] = molecular target: T9, mCRP (39) peptide (human); assay: solid phase peptide ELISA, antibody 1 ug/mL
T9 peptide: SLKAPLTKPLC
Experimental: as §1, §2

[10] = molecular target: T10, mCRP (49) peptide (human); assay: solid phase peptide ELISA, antibody 1 ug/mL
T10 peptide: KAFTVCLHFYC
Experimental: as §1, §2

[11] = molecular target: T11, mCRP (59) peptide (human); assay: solid phase peptide ELISA, antibody 1 ug/mL
T11 peptide: TELSSTRGYSC
Experimental: as §1, §2

[12] = molecular target: T12, mCRP (69) peptide (human); assay: solid phase peptide ELISA, antibody 1 ug/mL
T12 peptide: IFSYATKRQDC
Experimental: as §1, §2

[13] = molecular target: T13, mCRP (79) peptide (human); assay: solid phase peptide ELISA, antibody 1 ug/mL
T13 peptide: NEILIFWSKDC
Experimental: as §1, §2

[14] = molecular target: T14, mCRP (89) peptide (human); assay: solid phase peptide ELISA, antibody 1 ug/mL
T14 peptide: IGYSFTVGGSC
Experimental: as §1, §2

[15] = molecular target: T1, mCRP (99) peptide; assay: solid phase peptide ELISA, antibody 1 ug/mL
Experimental: as §1, §2

[16] = molecular target: T15, mCRP (109) peptide (human); assay: solid phase peptide ELISA, antibody 1 ug/mL
T15 peptide: VAPVHICTSWC
Experimental: as §1, §2

[17] = molecular target: T16, mCRP (119) peptide (human); assay: solid phase peptide ELISA, antibody 1 ug/mL
T16 peptide: ESASGIVEFWC
Experimental: as §1, §2

[18] = molecular target: T17, mCRP (129) peptide (human); assay: solid phase peptide ELISA, antibody 1 ug/mL
T17 peptide: VDGKPRVRKSC
Experimental: as §1, §2

[19] = molecular target: T18, mCRP (139) peptide (human); assay: solid phase peptide ELISA, antibody 1 ug/mL
T18 peptide: LKKGYTVGAEC
Experimental: as §1, §2

[20] = molecular target: T19, mCRP (149) peptide (human); assay: solid phase peptide ELISA, antibody 1 ug/mL
T19 peptide: ASIILGQEQDC
Experimental: as §1, §2

[21] = molecular target: T20, mCRP (159) peptide (human); assay: solid phase peptide ELISA, antibody 1 ug/mL
T20 peptide: SFGGNFEGSQC
Experimental: as §1, §2

[22] = molecular target: T21, mCRP (169) peptide (human); assay: solid phase peptide ELISA, antibody 1 ug/mL
T21 peptide: SLVGDIGNVNC
Experimental: as §1, §2

[23] = molecular target: T22, mCRP (179) peptide (human); assay: solid phase peptide ELISA, antibody 1 ug/mL
T22 peptide: MWDFVLSPDEC
Experimental: as §1, §2

[24] = molecular target: T23, mCRP (189) peptide (human); assay: solid phase peptide ELISA, antibody 1 ug/mL
T23 peptide: INTIYLGGPFC
Experimental: as §1, §2

[25] = molecular target: T24, mCRP (199) peptide (human); assay: solid phase peptide ELISA, antibody 1 ug/mL
T24 peptide: SPNVLNWRALC
Experimental: as §1, §2

[26] = molecular target: T25, mCRP (209) peptide (human); assay: solid phase peptide ELISA, antibody 1 ug/mL
T25 peptide: KYEVQGEVFTKPQLWPC
Experimental: as §1, §2

binding result [1]: no binding
B1: human denatured CRP-specific antibody produced from hybridoma mCRP-12C (antibody, mouse IgG1, V domains shown)
VH: EVQLQQSGAELVKPGASVKLSCTASGFNIKDYYIHWVKQRTDQGLEWIGRIDPEDDETKYAPKFQGKATIITDTSSNTAYLHLSSLTSADTAVYYCASRIYYYDIKGLFDYWGQGTTLTVSS
VL: DIVMTQAPSSLTVTAGEKVTMTCKSSQSLLNSGNQKNYLTWSQQKPGQPPKLLIYWASTRESGVPDRFTGSGSGTDFTLTISSVQAEDLAVYYCQNDYNYPITFGAGTKLELKR
notes: Mouse IgG1, kappa; also called 12C antibody

binding result [1]: no binding
B2: human denatured CRP-specific antibody produced from hybridoma mCRP-18A (antibody, mouse IgG2a)
heavy: EVQLQQSGAEFVKPGTSVKLSCTASGFNIKDYYIHWVKQRTEQGLEWIGRIDPEDGETKYAPKFQGKATITADASSNTAYLQLSSLTSEDTAVYYCVSRMYYYGSQGLFDFWGQGTTLTVSSAKTTAPSVYPLAPVCGGTTGSSVTLGCLVKGYFPEPVTLTWNSGSLSSGVHTFPALLQSGLYTLSSSVTVTSNTWPSQTITCNVAHPASSTKVDKKIEPRVPITQNPCPPLKECPPCAAPDLLGGPSVFIFPPKIKDVLMISLSPMVTCVVVDVSEDDPDVQISWFVNNVEVHTAQTQTHREDYNSTLRVVSALPIQHQDWMSGKEFKCKVNNRALPSPIEKTISKPRGPVRAPQVYVLPPPAEEMTKKEFSLTCMITGFLPAEIAVDWTSNGRTEQNYKNTATVLDSDGSYFMYSKLRVQKSTWERGSLFACSVVHEGLHNHLTTKTISHSPGK
light: DIVMTQSPSSLTVTAGEKVTMGCKSSQSLLNSANQKNYLTWYRQKPGQPPKLLIYWASTRESGVPDRFTGSGSGTDFTLTISSVQAEDLAVYYCQNDYNYPLTCGAGTKLDLKRADAAPTVSIFPPSSEQLTSGGASVVCFLNNFYPKDINVKWKIDGSERQNGVLNSWTDQDSKDSTYSMSSTLTLTKDEYERHNSYTCEATHKTSTSPIVKSFNRNEC
notes: Mouse IgG2a, kappa; also called 18A antibody

Absorbance (490 nm) [2]: 0.03 A490
Absorbance (490 nm) [3]: 1.98 A490
Absorbance (490 nm) [4]: 0.017 A490
Absorbance (490 nm) [5]: 0.108 A490
Absorbance (490 nm) [6]: 0.006 A490
Absorbance (490 nm) [7]: 0.004 A490
Absorbance (490 nm) [8]: -0.001 A490
Absorbance (490 nm) [9]: 0.001 A490
Absorbance (490 nm) [10]: 0 A490
Absorbance (490 nm) [11]: 0.001 A490
Absorbance (490 nm) [12]: 0.002 A490
Absorbance (490 nm) [13]: 0 A490
Absorbance (490 nm) [14]: 0 A490
Absorbance (490 nm) [15]: 1.58 A490
Absorbance (490 nm) [16]: -0.001 A490
Absorbance (490 nm) [17]: 0.005 A490
Absorbance (490 nm) [18]: 0.002 A490
Absorbance (490 nm) [19]: 0.002 A490
Absorbance (490 nm) [20]: 0.001 A490
Absorbance (490 nm) [21]: 0.002 A490
Absorbance (490 nm) [22]: 0.001 A490
Absorbance (490 nm) [23]: 0.003 A490
Absorbance (490 nm) [24]: 0.007 A490
Absorbance (490 nm) [25]: 0.006 A490
Absorbance (490 nm) [26]: 0 A490
B3: human denatured CRP-specific antibody produced from hybridoma mCRP-3C (antibody, mouse IgG2b, V domains shown)
VH: QVQLQQSGAELVRPGASVKLSCKALDYTFTDYEMHWVKQTPVHGLEWIGAIHPGRGGTAYNQKFKGKATLTADKSSSTAYMELSSLTSEDSGVYYCTSYHGGYWGQGTTLTVSS
VL: DVVMTQTPLSLPVSLGDQASISCRSSQSLVHSNENTYLLWYLQKPGQSPKLLIYKVSNRFSGVPDRFSGSGSGTDFTLKISRVEAEDLGVYFCSQTTHVPWTFGGGTKLEIKR
notes: Mouse IgG2b, kappa; also called 3C antibody
